We go through three molecules from patent US20230349919A1 (Regeneron, published 2023).

In assay [1] the target is T1, Der p 2 (house dust mite, UniProt P49278 18-146).
T1 construct: Also used oligonucleotide-barcoded for cell staining
T1 sequence (looked up): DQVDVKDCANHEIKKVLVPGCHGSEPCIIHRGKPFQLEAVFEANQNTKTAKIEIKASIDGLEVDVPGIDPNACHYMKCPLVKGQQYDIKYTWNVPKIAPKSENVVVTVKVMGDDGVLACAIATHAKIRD
The experiment in a line: antigen specificity score against Ole e 1 from barcode counts of single IgE PCs [cont.]. The protocol:
(§1) Antigen specificity score (AgSS) for IgG were calculated by subtracting the quantile of hIL-6Rα barcoded UMI counts multiplied by a penalty factor (x) from the quantile of hIL-4Rα barcoded UMI counts, AgSS=Q_hIL-4Rα-Q_hIL-6Rα^x. AgSS for IgE were calculated with a similar formula for mouse and human single cell data. For IgE scores the target antigens were either Der p1, Der p2 or Der f1 and the control was always Ole e1.
(§2) Following processing of the three single-cell libraries, the gene expression and V(D)J region sequencing data were used to subset PCs with a valid IgE constant region and detectable expression of IgE and CD79a but lacking the expression of Ms4a1 and CD19 typically found in non-PC B cells. IgE-expressing PCs were then assessed for differential expression against additional IgA, IgG, and IgM plasma cell isotypes to further characterize the unique transcriptional signature of IgE-secreting PCs. IgE-secreting PCs were then assessed for antigen specificity by comparing the normalized levels of the target antigens, namely, Der p 1, Der p 2, or Der f 1, against the normalized level of the control antigen Ole e 1. This was performed by calculating an empirical score for each target antigen and subtracting the […] with a penalty factor. The formula used to do is set forth below: […]

For assay [2], the target named is T2, Der f 1 (house dust mite, UniProt P16311 99-321).
T2 construct: Also used oligonucleotide-barcoded for cell staining
T2 sequence (looked up): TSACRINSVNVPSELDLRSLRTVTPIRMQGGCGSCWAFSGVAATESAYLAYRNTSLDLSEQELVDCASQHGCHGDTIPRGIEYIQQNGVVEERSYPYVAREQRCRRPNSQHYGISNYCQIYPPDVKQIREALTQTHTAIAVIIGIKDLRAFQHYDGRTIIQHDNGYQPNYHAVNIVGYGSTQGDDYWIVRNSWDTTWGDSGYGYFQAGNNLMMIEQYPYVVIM
Described as above. The protocol: as §1, §2

Assay [3] concerns the target T3, Der p 1 (house dust mite, UniProt P08176 99-320).
T3 construct: Also used oligonucleotide-barcoded for cell staining; also called natural Der p 1
T3 sequence (looked up): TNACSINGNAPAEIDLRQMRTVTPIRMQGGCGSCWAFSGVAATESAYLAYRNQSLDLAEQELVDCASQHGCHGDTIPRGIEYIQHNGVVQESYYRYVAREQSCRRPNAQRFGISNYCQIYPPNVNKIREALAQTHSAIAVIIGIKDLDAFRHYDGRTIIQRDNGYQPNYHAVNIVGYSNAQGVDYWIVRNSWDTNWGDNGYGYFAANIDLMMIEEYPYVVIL
Described as above. The protocol:
as §1, §2

Assay [4] deals with T1, Der p 2. The assay can be described thus: barcoded antigen sequencing of single IgE PCs with trapped IgE [cont.]. The text has this:
(§3) The barcoded antigen library was mapped by the CellRanger software to a custom short-read reference that contained the DNA tag sequences of the four barcoded antigens, namely, Der p 1, Der p 2, Der f 1 and Ole e 1. These tag sequences were quantified across all cells and were normalized by taking the centered log-ratio (CLR) per barcoded antigen across each sample capture. In addition, background antigen signal for each barcoded antigen was removed by DSB (Denoised and Scaled by Background). Both the CLR and the DSB normalized values were used to quantify the target antigen signals, namely, those for Der p 1, Der p 2 and Der f 1, against the control signal, namely, that for Ole e 1.

The target in assay [5] is T2, Der f 1. The description is as above.
Excerpt: as §3

Assay [6] addresses T3, Der p 1. Described as above.
Excerpt: as §3

Assay [7] addresses T1, Der p 2. The assay can be described thus: barcoded antigen sequencing of single IgE PCs with trapped IgE.
In assay [8] the target is T2, Der f 1. Described as above.
The target in assay [9] is T3, Der p 1. The assay is described as above.
The target in assay [10] is T1, Der p 2. The assay can be described thus: barcoded-antigen count on source cell.
Assay [11] deals with T2, Der f 1. The assay can be described thus: barcoded-antigen count on source cell.
In assay [12] the target is T3, Der p 1. The experiment in a line: ELISA, coated Der p1. The protocol:
(§4) After selecting allergen-specific antibodies, relative binding to Der p 1, Der p 2, and Der f 1 were quantified by ELISA. […] Specifically, binding microtiter plates were coated with 100 μl of 2 μg/mL of natural Der p 1, Der p 2, Der f 1, and Ole e 1 in PBS overnight at 4′C. IgE antibodies were prepared at a concentration of 1 μg/mL and serially diluted three-fold in PBS with 0.5% w/v BSA. After washing with 0.05% v/v Tween® 20 in PBS and blocking in PBS with 0.5% w/v BSA, 100 μl of the diluted IgE antibodies were transferred to the plates and incubated for one hour at ambient temperature. Subsequently, 100 μL of anti-mouse IgE antibody conjugated to horse-radish peroxidase (HRP) diluted at 1:5000 was added. The plates were then incubated for one hour at ambient temperature, and washed in 0.05% v/v/Tween® 20 in PBS. Subsequently, the HRP substrate 3,3′,5,5′-tetramethylbenzidine (TMB) was added. The reaction was stopped (with 100 μL of sulfuric acid 2.0 N) and optical density values determined using a plate reader at 450 nm.
(An ELISA detects its analyte on a solid surface through an enzyme-linked reagent.)

Assay [13] deals with T2, Der f 1. The experiment in a line: ELISA, coated Der f1. As to the method:
as §4

The target in assay [14] is T1, Der p 2. The experiment in a line: barcode rank score against control Ole e 1.
In assay [15] the target is T2, Der f 1. The assay can be described thus: barcode rank score against control Ole e 1.
In assay [16] the target is T1, Der p 2. The assay can be described thus: centered log-ratio of barcode count.
Excerpt: as §3

Assay [17] addresses T2, Der f 1. The experiment in a line: centered log-ratio of barcode count.
Excerpt: as §3

Assay [18] concerns the target T1, Der p 2. The experiment in a line: ELISA, coated Der p2. The protocol:
as §4

One may read the EC50 (read off the curve) as the midpoint of the concentration-response curve. A low value points to greater potency.

B1: Candidate ID 21 (antibody, V domains shown)
VH: QVQLQQSGPELVKPGASVKISCKAPGNAFSYSWMNWVKQRPGKGLEWVGRIYPGDGDTNYNGKFMGKATLTADKSSNTAYIQLSSLTSEDSAVYFCARSGGGTLYWYFDVWGTGTTVTVSS
VL: DIVMTQSPSSLALSVGQKVTMNCRSSQSLLNSFNQKNYLAWFQQKPGQSPRLLIYFASTRESGVPDRFIGSGSGTDFTLTISSVQAEDLADYFCQQHYNTPLTFGAGTTLELK
notes: IgE PCs LN
For B1, the “Antigen Score” value in [1] was 0.412; in assay [2] it was -0.386; in assay [3], -0.245. For the same molecule, the “Normalized Barcode Count” value in [4] is 4.01; in [5], -0.795; in assay [6], -0.398. Also, the “Raw Antigen Barcode Count” value in [7] was determined as 215; in assay [8], 1; in [9], 2.

B2: IgE mAb 12_2 (antibody, V domains shown)
VH: QAYLQQSGAELVRPGASVKMSCKASGYTFISYNMHWVKQTRRQGLEWIGAIYPGNGDTSYNQKFKGKATLTVDKSSSTAYMQLSSLTSEDSAVYFCARWDYYGSSYGAYWGQGTLVTVSA
VL: DIQMTQSPASLSVSVGETVTITCRASENIYSNLAWYQQKQGKSPQLLVYAATNLADGVPSRFSGSGSGTQYSLKINSLQSEDFGSYYCQHFWGTPWTFGGGTKLEIK
In turn, B2 gave a Derp2_ab_raw in [10] of 11 counts. In [11], this molecule had a Derf1_ab_raw of 57 counts. Further, the “EC50 (read off the curve)” value in [12], in assay [13] and in [18] was ~0.1 nM throughout. In [14], this molecule yielded a Derp2_ab_rank of 0.453. This molecule registered a Derf1_ab_rank in assay [15] of 0.973. In [16], the Derp2_ab_clr came to 0.00487. Moreover, the Derf1_ab_clr in assay [17] turned out to be 1.74.

B3: Candidate ID 13 (antibody, V domains shown)
VH: QAYLQQSGAELVRPGASVKMSCKASGYTFISYNMHWVKQTRRQGLEWIGAIYPGNGDTSYNQKFKGKATLTVDKSSSTAYMQLSSLTSEDSAVYFCARWDYYGSSYGAYWGQGTLVTVSA
VL: DIQMTQSPASLSVSVGETVTITCRASENIYSNLAWYQQKQGKSPQLLVYAATNLADGVPSRFSGSGSGTQYSLKINSLQSEDFGSYYCQHFWGTPWTFGGGTKLEIK
Take B3: the “Antigen Score” value in [1] came out at 0.453; in assay [2] it was 0.973; in assay [3] it was 0.637. For the same molecule, the “Normalized Barcode Count” value in [4] is 0.005; in assay [5] it was 1.74; in assay [6] it was 0.233. Further, the “Raw Antigen Barcode Count” value in assay [7] was 11; in assay [8], 57; in assay [9], 15.
